Laboratory results taken from US20240059797A1 (GRITSTONE BIO, published 2024).

Legend:
[1] = molecular target: HLA-A*01:01_… (HLA-PEPTIDE target G10), recombinant biotinylated complex (human, enzymatically biotinylated (BirA)); experiment: scFv PPE ELISA
[2] = molecular target: T1, HLA-B*35:01_… (HLA-PEPTIDE target G5), recombinant biotinylated complex (human, enzymatically biotinylated (BirA)); experiment: scFv PPE ELISA
T1 construct: also called G5-pHLA

Binder | fold selective binding to target pHLA over minipool of negative control pHLAs [1] [fold] | fold selective binding to target pHLA over minipool of negative control pHLAs [2] [fold]
G10(4E07) scFv (scFv, V domains shown) VH: QVQLVQSGAEVKKPGSSVKVSCKASGYTFTGYYMHWVRQAPGQGLEWMGRISPSDGSTTYAPKFQGRVTITADESTSTAYMELSSLRSEDTAVYYCARDMGDAFDIWGQGTTVTVSS VL: not shown | ≥ 3 | 
G5(3G01) scFv (scFv, V domains shown) VH: QVQLVQSGAEVKKPGASVKVSCKASGGTFSGYLVSWVRQAPGQGLEWMGWINPNSGGTNTAQKFQGRVTMTRDTSTSTVYMELSSLRSEDTAVYYCAREGYGMDVWGQGTTVTVSS VL: not shown |  | ≥ 3
G5(1B12) scFv (scFv, V domains shown) VH: EVQLLESGGGLVQPGGSLRLSCAASGFTFSNSDMNWVRQAPGKGLEWVASISSSGGYINYADSVKGRFTISRDNSKNTLYLQMNSLRAEDTAVYYCAKVNWNDGPYFDYWGQGTLVTVSS VL: DIQMTQSPSSLSASVGDRVTITCRASQSISSWLAWYQQKPGKAPKLLIYAASSLQSGVPSRFSGSGSGTDFTLTISSLQPEDFATYYCQQANSFPLTFGGGTKVEIK |  | ≥ 3
G10(2G11) scFv (scFv, V domains shown) VH: QVQLVQSGAEVKKPGASVKVSCKASGGTFSTHDINWVRQAPGQGLEWMGVINPSGGSAIYAQKFQGRVTMTRDTSTSTVYMELSSLRSEDTAVYYCARDRGYSYGYFDYWGQGTLVTVSS VL: DIQMTQSPSSLSASVGDRVTITCRASQDISRYLAWYQQKPGKAPKLLIYDASNLETGVPSRFSGSGSGTDFTLTISSLQPEDFATYYCQQANSFPRTFGQGTKVEIK | ≥ 3 | 
G5(1C12) scFv (scFv, V domains shown, also called G5-P1C12) VH: QVQLVQSGAEVKKPGSSVKVSCKASGGTFSNFGVSWLRQAPGQGLEWMGGIIPILGTANYAQKFQGRVTITADESTSTAYMELSSLRSEDTAVYYCATPTNSGYYGPYYYYGMDVWGQGTTVTVSS VL: DIQMTQSPSSLSASVGDRVTITCRASQSISSWLAWYQQKPGKAPKLLIYAASTLQSGVPSRFSGSGSGTDFTLTISSLQPEDFATYYCQQSYSIPLTFGGGTKVEIK |  | ≥ 3
G10(1H08) scFv (scFv, V domains shown) VH: QVQLVQSGAEVKKPGASVKVSCKASGVTFSTSAISWVRQAPGQGLEWMGWISPYNGNTDYAQMLQGRVTMTRDTSTSTVYMELSSLRSEDTAVYYCARDAHQYYDFWSGYYSGTYYYGMDVWGQGTTVTVSS VL: DIQMTQSPSSLSASVGDRVTITCRASQGISNYLAWYQQKPGKAPKLLIYSASNLQSGVPSRFSGSGSGTDFTLTISSLQPEDFATYYCQQAYSFPWTFGQGTKVEIK | ≥ 3 | 
G10(3E04) scFv (scFv, V domains shown) VH: QVQLVQSGAEVKKPGASVKVSCKASGNTFIGYYVHWVRQAPGQGLEWVGIINPNGGSISYAQKFQGRVTMTRDTSTSTVYMELSSLRSEDTAVYYCARGSGDPNYYYYYGLDVWGQGTTVTVSS VL: DIQMTQSPSSLSASVGDRVTITCQASQDISNYLNWYQQKPGKAPKLLIYAASNLQSGVPSRFSGSGSGTDFTLTISSLQPEDFATYYCQQANSLPYTFGQGTKVEIK | ≥ 3 | 
G10(1H01) scFv (scFv, V domains shown) VH: QVQLVQSGAEVKKPGASVKVSCKASGYTFTGYYMHWVRQAPGQGLEWMGMIGPSDGSTSYAQKFQGRVTMTRDTSTSTVYMELSSLRSEDTAVYYCARGVGNLDYWGQGTLVTVSS VL: DIQMTQSPSSLSASVGDRVTITCRASQSISNYLNWYQQKPGKAPKLLIYAASSLQSGVPSRFSGSGSGTDFTLTISSLQPEDFATYYCHQTYSTPLTFGQGTKVEIK | ≥ 3 | 
G5(4E04) scFv (scFv, V domains shown) VH: QVQLVQSGAEVKKPGASVKVSCKASGGTFSSYGISWVRQAPGQGLEWMGWINPNSGVTKYAQKFQGRVTMTRDTSTSTVYMELSSLRSEDTAVYYCARGDYYFDYWGQGTLVTVSS VL: DIQMTQSPSSLSASVGDRVTITCRASQSISRFLNWYQQKPGKAPKLLIYGASRPQSGVPSRFSGSGSGTDFTLTISSLQPEDFATYYCQQSYSTPLTFGQGTKVEIK |  | ≥ 3
G5(3G08) scFv (scFv, V domains shown) VH: QVQLVQSGAEVKKPGASVKVSCKASGYIFRNYPMHWVRQAPGQGLEWMGWINPDSGGTKYAQKFQGRVTMTRDTSTSTVYMELSSLRSEDTAVYYCARDNGVGVDYWGQGTLVTVSS VL: DIQMTQSPSSLSASVGDRVTITCRASQGISNYLAWYQQKPGKAPKLLIYAASSLQSGVPSRFSGSGSGTDFTLTISSLQPEDFATYYCQQSYITPYTFGQGTKLEIK |  | ≥ 3
G10(4D10) scFv (scFv, V domains shown) VH: QVQLVQSGAEVKKPGASVKVSCKASGYTFTGYYLHWVRQAPGQGLEWMGMIGPSDGSTSYAQKFQGRVTMTRDTSTSTVYMELSSLRSEDTAVYYCARDGDAFDIWGQGTMVTVSS VL: DIQMTQSPSSLSASVGDRVTITCRASQGISSWLAWYQQKPGKAPKLLIYDASNLETGVPSRFSGSGSGTDFTLTISSLQPEDFATYYCQQSYSTPLTFGGGTKVEIK | ≥ 3 | 
G10(2C04) scFv (scFv, V domains shown) VH: QVQLVQSGAEVKKPGASVKVSCKASGGTFSNSIINWVRQAPGQGLEWMGWMNPNSGNTNYAQKFQGRVTMTRDTSTSTVYMELSSLRSEDTAVYYCAREQWPSYWYFDLWGRGTLVTVSS VL: not shown | ≥ 3 | 
G5(4B02) scFv (scFv, V domains shown) VH: QVQLVQSGAEVKKPGASVKVSCKASGYTFTGYYMHWVRQAPGQGLEWMGWMNPNIGNTGYAQKFQGRVTMTRDTSTSTVYMELSSLRSEDTAVYYCARGIADSGSYYGNGRDYYYGMDVWGQGTTVTVSS VL: DIVMTQSPDSLAVSLGERATINCKTSQSVLYRPNNENYLAWYQQKPGQPPKLLIYQASIREPGVPDRFSGSGSGTDFTLTISSLQAEDVAVYYCQQYYTTPYTFGQGTKLEIK |  | ≥ 3
G5(1D06) scFv (scFv, V domains shown) VH: QVQLVQSGAEVKKPGASVKVSCKASGYTFTSYDINWVRQAPGQGLEWMGWINPNSGDTKYSQKFQGRVTMTRDTSTSTVYMELSSLRSEDTAVYYCARDGTRYYGMDVWGQGTTVTVSS VL: not shown |  | ≥ 3
G10(4A02) scFv (scFv, V domains shown) VH: QVQLVQSGAEVKKPGASVKVSCKASGYTLSYYYMHWVRQAPGQGLEWMGMIGPSDGSTSYAQRFQGRVTMTRDTSTGTVYMELSSLRSEDTAVYYCARDTGDHFDYWGQGTLVTVSS VL: not shown | ≥ 3 | 
G10(4G06) scFv (scFv, V domains shown) VH: QVQLVQSGAEVKKPGASVKVSCKASGYTLSYYYMHWVRQAPGQGLEWMGMIGPSDGSTSYAQRFQGRVTMTRDTSTGTVYMELSSLRSEDTAVYYCARDTGDHFDYWGQGTLVTVSS VL: not shown | ≥ 3 | 
G10(4D04) scFv (scFv, V domains shown) VH: QVQLVQSGAEVKKPGASVKVSCKASGYTFTGYYVHWVRQAPGQGLEWMGIIAPSDGSTNYAQKFQGRVTMTRDTSTSTVYMELSSLRSEDTAVYYCARDPGGYMDVWGKGTTVTVSS VL: DIQMTQSPSSLSASVGDRVTITCRASQSISSYLAWYQQKPGKAPKLLIYDASKLETGVPSRFSGSGSGTDFTLTISSLQPEDFATYYCQQSYGVPTFGQGTKLEIK | ≥ 3 | 
G5(1H11) scFv (scFv, V domains shown) VH: EVQLLESGGGLVKPGGSLRLSCAASGFTFSDYYMSWVRQAPGKGLEWVSYISSSSSYTNYADSVKGRFTISRDDSKNTLYLQMNSLKTEDTAVYYCARDVVANFDYWGQGTLVTVSS VL: EIVMTQSPATLSVSPGERATLSCRASQSVSSNLAWYQQKPGQAPRLLIYAASARASGIPARFSGSGSGTEFTLTISSLQSEDFAVYYCQQYGSWPRTFGQGTKVEIK |  | ≥ 3
G10(5C08) scFv (scFv, V domains shown) VH: QVQLVQSGAEVKKPGASVKVSCKASGYNFTGYYMHWVRQAPGQGLEWMGIIAPSDGSTNYAQKFQGRVTMTRDTSTSTVYMELSSLRSEDTAVYYCARETGDDAFDIWGQGTMVTVSS VL: not shown | ≥ 3 | 
G5(1E05) scFv (scFv, V domains shown) VH: QVQLVQSGAEVKKPGASVKVSCKASGYTFTSYNMHWVRQAPGQGLEWMGWINPNSGGTNYAQKFQGRVTMTRDTSTSTVYMELSSLRSEDTAVYYCARDVMDVWGQGTTVTVSS VL: DIQMTQSPSSLSASVGDRVTITCRASQGISNYLNWYQQKPGKAPKLLIYYASSLQSGVPSRFSGSGSGTDFTLTISSLQPEDFATYYCQQTYMMPYTFGQGTKVEIK |  | ≥ 3
G10(4C05) scFv (scFv, V domains shown) VH: QVQLVQSGAEVKKPGASVKVSCKASGYTFTGYYMHWVRQAPGQGLEWMGIIGPSDGSTTYAQKFQGRVTMTRDTSTSTVYMELSSLRSEDTAVYYCARAENGMDVWGQGTTVTVSS VL: DIQMTQSPSSLSASVGDRVTITCRASQRISSYLNWYQQKPGKAPKLLIYSASTLQSGVPSRFSGSGSGTDFTLTISSLQPEDFATYYCQQSYSTPFTFGPGTKVDIK | ≥ 3 | 
G5(2B10) scFv (scFv, V domains shown) VH: QVQLVQSGAEVKKPGASVKVSCKASGGTFSSYAISWVRQAPGQGLEWMGWMNPDSGSTGYAQRFQGRVTMTRDTSTSTVYMELSSLRSEDTAVYYCARGHSSGWYYYYGMDVWGQGTTVTVSS VL: not shown |  | ≥ 3
